The labels stand for the following.
B1: Hst-5 synthetic peptide K17R (peptide)
peptide: DSHAKRHHGYKRKFHERHHSHRGY
B2: Hst-5 synthetic peptide K11R (peptide)
peptide: DSHAKRHHGYRRKFHEKHHSHRGY
B3: Hst-5 synthetic peptide K17L (peptide)
peptide: DSHAKRHHGYKRKFHELHHSHRGY
B4: Hst-5 synthetic peptide K5R (peptide)
peptide: DSHARRHHGYKRKFHEKHHSHRGY
B5: parent Hst-5 peptide (Histatin-5) (peptide)
peptide: DSHAKRHHGYKRKFHEKHHSHRGY
modifications: also: hydrochloride salt

No end group written: not given here. Bounds are passed on as bounds.

The experiment deals with purified recombinant Sap9 (C. albicans secreted aspartic protease 9) (Candida albicans). Briefly: cell-based or functional assay.
For B1, the “intact peptide remaining after 2 h at 37 C with 3.13 ug/mL Sap9 (gel densitometry)” value (from here on “intact peptide remaining … (gel densitometry)”) amounted to 82% and the “intact peptide remaining after 2 h with 6.25 ug/mL Sap9” value is more than 60%. For B2, the “intact peptide remaining after 2 h with 6.25 ug/mL Sap9” value was 20%. Turning to B3, the “intact peptide remaining … (gel densitometry)” value amounted to 77% and the “intact peptide remaining after 2 h with 6.25 ug/mL Sap9” value was more than 60%. For B4, the “intact peptide remaining after 2 h with 6.25 ug/mL Sap9” value is 4.5%.

In the case of B5, the “intact peptide remaining … (gel densitometry)” value was found to be 47%.

For the origin of these results see patent US20170291930A1 (UNIVERSITY OF MARYLAND BALTIMORE, published 2017).
